PMC10130748

Columns and labels:
[1] = molecular target: CD62P (P-selectin) lectin domain (residues 1–117), wild type; test: ELISA; wells coated with the CD62P lectin domain (WT, mutants, or lectin+EGF; 50 μg/ml where stated), blocked with BSA; soluble αvβ3 or αIIbβ3 (1 μg/ml) in HEPES-Tyrodes buffer with 1 mM MnCl2, 1 h, room temperature; bound integrin detected with anti-β3 mAb AV-10 and HRP anti-mouse IgG
[2] = molecular target: CD62P lectin domain R16E/K17E mutant
Chain of CD62P lectin domain R16E/K17E mutant (P16109 42-158 R57E/K58E): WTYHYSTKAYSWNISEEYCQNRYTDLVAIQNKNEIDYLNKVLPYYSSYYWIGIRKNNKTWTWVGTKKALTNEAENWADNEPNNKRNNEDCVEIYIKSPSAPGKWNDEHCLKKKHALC

Chain of CD62P (P-selectin) lectin domain (residues 1–117), wild type (P16109 42-158): as the sequence (P16109 42-158 R57E/K58E) above, with E16R, E17K counted along it
Chain of integrin αvβ3 on β3-CHO cells (P05106 whole entry, looked up): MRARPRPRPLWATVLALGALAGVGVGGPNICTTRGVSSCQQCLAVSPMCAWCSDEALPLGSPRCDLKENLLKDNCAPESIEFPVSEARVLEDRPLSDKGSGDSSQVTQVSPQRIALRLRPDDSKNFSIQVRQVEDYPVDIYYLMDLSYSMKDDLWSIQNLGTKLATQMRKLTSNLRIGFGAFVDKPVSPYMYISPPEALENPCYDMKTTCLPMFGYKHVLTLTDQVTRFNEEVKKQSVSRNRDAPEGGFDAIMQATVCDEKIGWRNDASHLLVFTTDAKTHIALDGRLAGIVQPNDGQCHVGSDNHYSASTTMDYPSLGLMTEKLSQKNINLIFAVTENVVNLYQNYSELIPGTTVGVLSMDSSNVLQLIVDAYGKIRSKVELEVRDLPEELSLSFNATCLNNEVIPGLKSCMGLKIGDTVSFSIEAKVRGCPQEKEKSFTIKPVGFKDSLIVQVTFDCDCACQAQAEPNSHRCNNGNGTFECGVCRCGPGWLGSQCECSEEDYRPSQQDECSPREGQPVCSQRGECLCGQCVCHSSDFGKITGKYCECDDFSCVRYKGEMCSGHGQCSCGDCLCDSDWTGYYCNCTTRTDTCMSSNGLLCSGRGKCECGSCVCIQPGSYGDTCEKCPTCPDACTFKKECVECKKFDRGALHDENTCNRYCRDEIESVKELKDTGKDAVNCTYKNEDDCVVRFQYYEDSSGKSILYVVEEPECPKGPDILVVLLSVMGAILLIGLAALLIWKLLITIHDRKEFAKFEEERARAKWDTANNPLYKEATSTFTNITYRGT

Substance	fold binding relative to the combined lectin and EGF-like domains [1]	also measured
soluble recombinant integrin αvβ3 (from UniProt P06756 31-1048; P05106 27-718) (receptor)	2 fold	
soluble recombinant integrin αIIbβ3 (from UniProt P08514 32-1039; P05106 27-718) (receptor)	2 fold	
integrin α5β1 on parent CHO cells (receptor)		static adhesion of parent CHO cells to wells coated with the R16E/K17E lectin domain (50 μg/ml), Mg2+ buffer [2]: 60 % reduced
integrin αvβ3 on β3-CHO cells (from UniProt P05106 27-788) (receptor)		static adhesion of β3-CHO cells to wells coated with the R16E/K17E lectin domain (50 μg/ml), Mg2+ buffer [2]: 60 % reduced
